This passage reports abundance fitness results from the Human Domainome abundance scans (Beltran et al. 2025).

± gives the uncertainty stated by the source.

A short description of this series: abundance fitness (aPCA) (normalised: wild type 0, dead -1); higher = more abundant; growth selection in yeast, the domain comes from the species named. Particulars: Homo sapiens.
“Lipoamide acyltransferase component of branched-chain alpha-keto acid dehydrogenase complex, mitochondrial G195V, P11182” displayed an abundance fitness of -0.702 ± 0.059. To “Lipoamide acyltransferase component of branched-chain alpha-keto acid dehydrogenase complex, mitochondrial G195W, P11182” belongs -1.25 ± 0.11; to “Lipoamide acyltransferase component of branched-chain alpha-keto acid dehydrogenase complex, mitochondrial G195Y, P11182”, -0.977 ± 0.35; to “Lipoamide acyltransferase component of branched-chain alpha-keto acid dehydrogenase complex, mitochondrial G198A, P11182”, -0.517 ± 0.044. To “Lipoamide acyltransferase component of branched-chain alpha-keto acid dehydrogenase complex, mitochondrial G198C, P11182” belongs -0.666 ± 0.14; to “Lipoamide acyltransferase component of branched-chain alpha-keto acid dehydrogenase complex, mitochondrial G198D, P11182”, -0.341 ± 0.11; to “Lipoamide acyltransferase component of branched-chain alpha-keto acid dehydrogenase complex, mitochondrial G198E, P11182”, -0.506 ± 0.052. To “Lipoamide acyltransferase component of branched-chain alpha-keto acid dehydrogenase complex, mitochondrial G198F, P11182” belongs -0.771 ± 0.25; to “Lipoamide acyltransferase component of branched-chain alpha-keto acid dehydrogenase complex, mitochondrial G198H, P11182”, -0.267 ± 0.062; to “Lipoamide acyltransferase component of branched-chain alpha-keto acid dehydrogenase complex, mitochondrial G198I, P11182”, -1.24 ± 0.23. As to “Lipoamide acyltransferase component of branched-chain alpha-keto acid dehydrogenase complex, mitochondrial G198K, P11182”, the abundance fitness is -0.406 ± 0.18. “Lipoamide acyltransferase component of branched-chain alpha-keto acid dehydrogenase complex, mitochondrial G198M, P11182” yielded an abundance fitness of -0.57 ± 0.1.

As to “Lipoamide acyltransferase component of branched-chain alpha-keto acid dehydrogenase complex, mitochondrial G198P, P11182”, the abundance fitness is -0.776 ± 0.097. The figure for “Lipoamide acyltransferase component of branched-chain alpha-keto acid dehydrogenase complex, mitochondrial G198Q, P11182” is -0.301 ± 0.051. The figure for “Lipoamide acyltransferase component of branched-chain alpha-keto acid dehydrogenase complex, mitochondrial G198R, P11182” is -0.514 ± 0.044. For “Lipoamide acyltransferase component of branched-chain alpha-keto acid dehydrogenase complex, mitochondrial G198S, P11182”, the abundance fitness is -0.412 ± 0.04. The figure for “Lipoamide acyltransferase component of branched-chain alpha-keto acid dehydrogenase complex, mitochondrial G198T, P11182” is -0.647 ± 0.078. To “Lipoamide acyltransferase component of branched-chain alpha-keto acid dehydrogenase complex, mitochondrial G198V, P11182” belongs -1.04 ± 0.085.
